Blank lines part the entries; values can stand above or below the binder they belong to.
Legend:
[1] = molecular target: c-Myc bHLH-Zip (amino acids 342-439) (human, UniProt P01106); assay: gel retardation with an oligonucleotide holding the CACGTG site
Description: (§1) Gel retardation DNA binding assays were performed essentially as described in Papoulas et al., (J. Biol. Chem. 267:10470–10480, 1992). Purified Max and c-Myc bHLH-Zip (which contained residues 342–439 of human c-Myc) were made from recombinant *E. coli* by standard techniques. GST-Mxi1 was made as follows: a fragment that contained the entire coding sequence of Mxi1 was amplified using polymerase chain reaction, subcloned into pGEX-2T (Pharmacia), and transformed into DH5α cells. The fusion protein was induced and isolated as described (Smith and Corcoran, *Current Protocols in Molecular Biology*, Ausubel et al., eds., Greene Publishing and Wiley-Interscience, New York, 1989). A double-stranded oligonucleotide, 5'-[…]-3' (SEQ ID NO: 9), that contained the CACGTG (SEQ ID NO: 10) consensus site was used. Approximately 0.5 μg of oligonucleotide was end labeled with [γ-^32P] ATP. Binding assays contained the indicated concentrations of purified Max, c-Myc bHLH-Zip, GST-Mxi1, and 0.5 ng of the labeled DNA probe. […]

[2] = molecular target: LexA-n-Myc-bHLH-Zip (Escherichia coli (strain K12); Homo sapiens (Human)); assay: interaction trap (yeast two-hybrid), pJK103 LexAop-lacZ reporter, galactose (<2 on glucose); the text says that this bait does not interact
LexA-cMyc-Cterm (human) = assay: interaction trap (yeast two-hybrid), pJK103 LexAop-lacZ reporter, galactose (<2 on glucose)
LexA-Max (human) = assay: as above
[3] = molecular target: LexA-Da (Escherichia coli (strain K12); Drosophila melanogaster (Fruit fly)) (UniProt P0A7C2); assay: interaction trap (yeast two-hybrid), pJK103 LexAop-lacZ reporter, galactose
LexA-Id (human) = assay: as above
LexA-Hairy (Drosophila) = assay: as above
LexA-Mxi1 (human) = assay: interaction trap (yeast two-hybrid), pJK103 LexAop-lacZ reporter, galactose; the same value 10 stands on glucose, where tagged Mxi1 is not induced, and the filing reads this as no self-interaction
Max (151 residue form) = Max (151 residue form) (Homo sapiens, UniProt P61244-2 P61244-2:1-151); assay: EMSA; complex b, 10 ng Max; 10 mM Tris pH 7.4, 80 mM NaCl, room temperature; settings: tags: none stated; E. coli; chain copies: 2 (inferred); label: 32P 5' end
Description: as §1

Chain of LexA-Hairy (Drosophila) (P0A7C2 other isoform, or with tags, fused parts or gaps): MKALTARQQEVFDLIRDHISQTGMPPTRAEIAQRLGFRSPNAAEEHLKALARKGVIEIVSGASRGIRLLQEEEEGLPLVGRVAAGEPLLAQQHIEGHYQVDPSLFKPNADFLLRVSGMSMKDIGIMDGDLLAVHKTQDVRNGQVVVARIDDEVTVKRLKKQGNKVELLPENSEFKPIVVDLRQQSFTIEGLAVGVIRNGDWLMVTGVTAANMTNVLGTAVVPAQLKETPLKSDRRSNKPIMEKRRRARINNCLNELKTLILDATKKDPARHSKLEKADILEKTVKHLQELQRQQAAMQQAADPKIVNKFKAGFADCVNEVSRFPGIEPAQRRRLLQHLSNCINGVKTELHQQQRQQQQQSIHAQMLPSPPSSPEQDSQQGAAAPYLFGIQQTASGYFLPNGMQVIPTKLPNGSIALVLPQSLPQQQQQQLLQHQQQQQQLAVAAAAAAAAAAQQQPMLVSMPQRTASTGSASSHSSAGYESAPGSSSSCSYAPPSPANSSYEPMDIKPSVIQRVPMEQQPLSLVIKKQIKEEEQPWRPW
Chain of LexA-Id (human) (P0A7C2 other isoform, or with tags, fused parts or gaps): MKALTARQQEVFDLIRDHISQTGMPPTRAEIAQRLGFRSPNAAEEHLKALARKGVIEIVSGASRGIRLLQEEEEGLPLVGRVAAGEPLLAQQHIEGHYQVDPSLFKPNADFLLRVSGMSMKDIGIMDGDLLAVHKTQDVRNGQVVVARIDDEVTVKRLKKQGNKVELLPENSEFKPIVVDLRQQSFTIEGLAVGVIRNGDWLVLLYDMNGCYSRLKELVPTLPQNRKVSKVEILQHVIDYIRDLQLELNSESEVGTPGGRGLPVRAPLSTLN
Chain of Max (151 residue form) (P61244 other isoform, or with tags, fused parts or gaps): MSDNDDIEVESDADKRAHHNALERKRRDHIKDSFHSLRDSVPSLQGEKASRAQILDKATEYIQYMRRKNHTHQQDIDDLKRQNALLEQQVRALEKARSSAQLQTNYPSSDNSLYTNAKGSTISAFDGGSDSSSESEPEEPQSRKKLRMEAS
Chain of LexA-n-Myc-bHLH-Zip (Escherichia coli (strain K12); Homo sapiens (Human)) (P0A7C2 1-202, tags or fused parts left off): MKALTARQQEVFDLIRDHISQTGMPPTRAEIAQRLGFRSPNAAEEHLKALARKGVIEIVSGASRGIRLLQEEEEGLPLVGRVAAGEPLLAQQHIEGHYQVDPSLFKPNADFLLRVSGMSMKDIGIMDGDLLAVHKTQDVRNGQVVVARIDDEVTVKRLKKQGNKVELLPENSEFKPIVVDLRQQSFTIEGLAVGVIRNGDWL
Chain of LexA-Da (Escherichia coli (strain K12); Drosophila melanogaster (Fruit fly)) (P0A7C2 1-202, tags or fused parts left off): as above

binding result [1]: no binding
B1: glutathione S-transferase (GST)-Mxi1 1-220 (other)
chain: MPSPRLQHSKPPRRLSRAQKHSSGTSNTSTANRSTHNELEKNRRAHLRLCLERLKVLIPLGPDCTRHTTLGLLNKAKAHIKKLEEAERKSQHQLENLEREQRFLKWRLEQLQGPQEMERIRMDSIGSTISSDRSDSEREEIEVDVESTEFSHGEVDNISTTSISDIDDHSSLPSIGSDEGYSSASVKLSFTSYRTQHDITVQGKIFTGPIQYKQSLKLGS

β-galactosidase (galactose) [2]: 8
β-galactosidase (galactose) (LexA-cMyc-Cterm (human)): 10
β-galactosidase (galactose) (LexA-Max (human)): 120
β-galactosidase (galactose) [3]: < 2
β-galactosidase (galactose) (LexA-Id (human)): < 2
β-galactosidase (galactose) (LexA-Hairy (Drosophila)): < 2
β-galactosidase (galactose) (LexA-Mxi1 (human)): 10
B2: tagged Mxi1 (the invariant activation-tagged moiety of pJG4-5 fused to Mxi1 residues 10-220) (protein)
chain: PPKKKRKVAYPYDVPDYAKPPRRLSRAQKHSSGTSNTSTANRSTHNELEKNRRAHLRLCLERLKVLIPLGPDCTRHTTLGLLNKAKAHIKKLEEAERKSQHQLENLEREQRFLKWRLEQLQGPQEMERIRMDSIGSTISSDRSDSEREEIEVDVESTEFSHGEVDNISTTSISDIDDHSSLPSIGSDEGYSSASVKLSFTSYRTQHDITVQGKIFTGPIQYKQSLKLGS

B3: Myc-Max consensus site oligonucleotide (dsDNA)
DNA 1: GGAAGCAGACCACGTGGTCTGCTTCC
DNA 2: GGAAGCAGACCACGTGGTCTGCTTCC
binding result (Max (151 residue form)): binds
